Test results: patent US20230057665A1 (Eli Lilly, published 2023)

Legend:
Human IL-1β [1] = molecular target: T1, Human IL-1β (human, UniProt P01584 117-269); experiment: MSD-SET (solution equilibrium titration, electrochemiluminescence), 37° C., 72 h equilibrium
T1 construct: also called IL-1 beta; Interleukin-1β
Procedure: MSD (Meso Scale Discovery) electrochemiluminescence assay is utilized to measure the affinity of Antibody I, Antibody II, and Canakinumab against human IL-1β. First, the equilibrium mixture of antibodies and human IL-1β is set up; in the mixture the antibody, concentrations are kept constant at 1 pM, 10 pM, and 100 pM whereas the ligand is titrated in the concentration ranging from 0.9 nM to 0.00004 nM (2.5 times dilution between concentrations) The equilibrium mixture is set up in sealed non-binding 96-well plate at 37° C. for 72 hours.
MSD Gold Streptavidin plates are used to detect the free antibodies in the equilibrium mixture. The MSD plates are first blocked with blocking buffer (PBS+1% BSA) for 1 hour on a shaker set at 800 rpm and then washed 3 times with washing buffer PBST (PBS ±0.05% Tween 20). The plates are coated with biotinylated human IL-1p followed by 3× washing with PBST. The equilibrium mixtures are added to the coated plate, incubated at room temperature with shaking for 2.5 mins and immediately washed 3× with PBST. The goat anti-human Sulfo-TAG antibody is added to the plate and incubated at room temperature for 1 hour with shaking. After three more washes, MSD Read Buffer at 1:2 concentration diluted in MilliQ water is added to the wells. immediately afterwards, the plates are read using an MSD Sector Imager 516000 instrument.

Cyno IL-1β = Cyno IL-1β (cyno, UniProt P79182 117-268); experiment: cell-based or functional assay
Human IL-1β [2] = molecular target: T1, Human IL-1β; experiment: cell-based or functional assay

B1: Canakinumab (antibody, human IgG4 S228P, kappa, F234A L235A, V domains shown)
VH: QVQLVESGGGVVQPGRSLRLSCAASGFTFSVYGMNWVRQAPGKGLEWVAIIWYDGDNQYYADSVKGRFTISRDNSKNTLYLQMNGLRAEDTAVYYCARDLRTGPFDYWGQGTLVTVSS
VL: EIVLTQSPDFQSVTPKEKVTITCRASQSIGSSLHWYQQKPDQSPKLLIKYASQSFSGVPSRFSGSGSGTDFTLTINSLEAEDAAAYYCHQSSSLPFTFGPGTKVDIKR
Kd (Human IL-1β [1]): 0.0131 nM
Cyno IL-1β Inhibition IC50 (HEK-Blue IL-1β reporter cells, 4 pM IL-1β) (Cyno IL-1β): > 10000 pM
Human IL-1β Inhibition IC50 (HEK-Blue IL-1β reporter cells, 4 pM IL-1β) (Human IL-1β [2]): 29.2 pM
